This is an account of results in article PMC4068289.

The target in the test is human amyloid β 1–40 carrying the A2V mutation (Aβ_(1–40A2V)) (human). Put plainly: far-Western, overlay or dot blot.

In turn, “human amyloid β 1–40 carrying the A2V mutation (Aβ_(1–40A2V)) (peptide)” showed a fold increase in the proportion of A11-stained oligomers against WT of 3 fold.
